Each block holds one substance with its values, some of them ahead of it.
How the values were obtained:
hbaz_human HBZ = hbaz_human HBZ (UniProt P02008)
traf1_human TRAF1 = traf1_human TRAF1 (UniProt Q13077)
vps29_human VPS29 = vps29_human VPS29 (UniProt Q9UBQ0)
magd1_human MAGED1 = target: T1, magd1_human MAGED1 (UniProt Q9Y5V3)
T1 sequence: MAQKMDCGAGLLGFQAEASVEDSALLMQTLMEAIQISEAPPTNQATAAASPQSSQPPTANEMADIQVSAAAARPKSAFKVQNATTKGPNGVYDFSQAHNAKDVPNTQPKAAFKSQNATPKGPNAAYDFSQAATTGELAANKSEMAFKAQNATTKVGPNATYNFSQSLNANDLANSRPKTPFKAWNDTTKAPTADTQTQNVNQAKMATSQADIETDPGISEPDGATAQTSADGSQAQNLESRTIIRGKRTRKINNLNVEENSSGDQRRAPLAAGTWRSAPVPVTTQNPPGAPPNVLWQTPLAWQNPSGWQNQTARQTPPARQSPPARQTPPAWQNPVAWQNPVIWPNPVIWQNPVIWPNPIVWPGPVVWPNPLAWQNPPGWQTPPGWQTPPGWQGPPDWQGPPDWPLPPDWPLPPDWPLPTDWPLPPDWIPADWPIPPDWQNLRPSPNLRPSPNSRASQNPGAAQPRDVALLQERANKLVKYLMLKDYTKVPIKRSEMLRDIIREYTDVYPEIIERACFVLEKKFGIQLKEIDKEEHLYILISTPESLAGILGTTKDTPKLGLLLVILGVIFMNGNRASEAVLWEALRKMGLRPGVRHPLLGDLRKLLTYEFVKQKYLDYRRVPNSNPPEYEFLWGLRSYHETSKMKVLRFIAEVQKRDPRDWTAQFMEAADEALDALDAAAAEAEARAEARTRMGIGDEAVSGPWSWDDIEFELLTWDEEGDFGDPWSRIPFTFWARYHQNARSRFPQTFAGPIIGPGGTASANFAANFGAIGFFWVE

nmna1_human NMNAT1 = nmna1_human NMNAT1 (UniProt Q9HAN9)
mlh1_human MLH1 = mlh1_human MLH1 (UniProt P40692)
neca2_human NECAB2 = target: T2, neca2_human NECAB2 (UniProt Q7Z6G3)
T2 sequence: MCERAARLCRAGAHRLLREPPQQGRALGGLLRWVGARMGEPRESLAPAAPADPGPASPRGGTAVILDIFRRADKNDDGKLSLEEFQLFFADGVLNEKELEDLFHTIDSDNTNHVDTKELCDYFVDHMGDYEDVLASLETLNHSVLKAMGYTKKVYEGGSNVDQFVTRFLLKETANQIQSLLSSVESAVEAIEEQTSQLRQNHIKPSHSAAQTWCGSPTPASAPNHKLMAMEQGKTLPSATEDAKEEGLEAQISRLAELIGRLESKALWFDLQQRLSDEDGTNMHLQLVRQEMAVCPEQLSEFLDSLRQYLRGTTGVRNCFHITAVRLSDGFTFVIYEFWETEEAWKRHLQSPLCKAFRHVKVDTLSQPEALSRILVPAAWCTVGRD

srtd3_human SERTAD3 = target: T3, srtd3_human SERTAD3 (UniProt Q9UJW9)
T3 sequence: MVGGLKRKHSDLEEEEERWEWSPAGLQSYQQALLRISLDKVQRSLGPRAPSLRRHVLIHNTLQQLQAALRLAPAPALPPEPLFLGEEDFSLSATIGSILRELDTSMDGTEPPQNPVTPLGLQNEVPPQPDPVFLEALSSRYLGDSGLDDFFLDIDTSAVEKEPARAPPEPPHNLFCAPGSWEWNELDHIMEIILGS

itf2_human TCF4 = itf2_human TCF4 (UniProt P15884)
inca1_human INCA1 = inca1_human INCA1 (UniProt Q0VD86)
cep76_human CEP76 = cep76_human CEP76 (UniProt Q8TAP6)
klhl2_human KLHL2 = klhl2_human KLHL2 (UniProt O95198)
tcl1a_human TCL1A = tcl1a_human TCL1A (UniProt P56279)

effect of a mutation on the interaction (hbaz_human HBZ): disrupting interaction strength
Substance: Hemoglobin subunit beta (Homo sapiens), P68871 S10C

effect of a mutation on the interaction (traf1_human TRAF1): with no effect
Substance: Zinc finger protein 502 (Homo sapiens), Q8TBZ5 Q174R

effect of a mutation on the interaction (vps29_human VPS29): with no effect
Substance: Vacuolar protein sorting-associated protein 35 (Homo sapiens) (from UniProt Q96QK1) R524W

effect of a mutation on the interaction (hbaz_human HBZ): disrupting interaction strength
Substance: Hemoglobin subunit beta (Homo sapiens), P68871 H118Y

effect of a mutation on the interaction (itf2_human TCF4): with no effect
effect of a mutation on the interaction (inca1_human INCA1): with no effect
effect of a mutation on the interaction (cep76_human CEP76): with no effect
Substance: Calcium-binding protein 5 (Homo sapiens), Q9NP86 V128A

effect of a mutation on the interaction (hbaz_human HBZ): with no effect
Substance: Hemoglobin subunit beta (Homo sapiens), P68871 N103Y

effect of a mutation on the interaction (klhl2_human KLHL2): with no effect
Substance: Zinc finger protein 114 (Homo sapiens), Q8NC26 D61V

effect of a mutation on the interaction (traf1_human TRAF1): with no effect
Substance: Zinc finger protein 502 (Homo sapiens), Q8TBZ5 T184A

effect of a mutation on the interaction (hbaz_human HBZ): disrupting interaction strength
Substance: Hemoglobin subunit beta (Homo sapiens), P68871 L115P

effect of a mutation on the interaction (klhl2_human KLHL2): with no effect
Substance: Zinc finger protein 114 (Homo sapiens), Q8NC26 K404E

effect of a mutation on the interaction (tcl1a_human TCL1A): disrupting interaction strength
Substance: "DNA (cytosine-5)-methyltransferase 3A" (Homo sapiens) (from UniProt Q9Y6K1) P904L

The remaining lines, values behind:

Substance: Importin subunit alpha-1 (Homo sapiens) (from UniProt P52292) P216S
effect of a mutation on the interaction (magd1_human MAGED1): with no effect
effect of a mutation on the interaction (nmna1_human NMNAT1): with no effect
effect of a mutation on the interaction (mlh1_human MLH1): with no effect
effect of a mutation on the interaction (neca2_human NECAB2): with no effect
effect of a mutation on the interaction (srtd3_human SERTAD3): with no effect

Substance: Importin subunit alpha-1 (Homo sapiens) (from UniProt P52292) N86S
effect of a mutation on the interaction (magd1_human MAGED1): with no effect
effect of a mutation on the interaction (nmna1_human NMNAT1): with no effect
effect of a mutation on the interaction (mlh1_human MLH1): with no effect
effect of a mutation on the interaction (neca2_human NECAB2): with no effect
effect of a mutation on the interaction (srtd3_human SERTAD3): with no effect

Substance: Zinc finger protein 114 (Homo sapiens), Q8NC26 H99N
effect of a mutation on the interaction (klhl2_human KLHL2): with no effect

Substance: Hemoglobin subunit beta (Homo sapiens), P68871 E122V
effect of a mutation on the interaction (hbaz_human HBZ): disrupting interaction strength

Substance: Importin subunit alpha-1 (Homo sapiens) (from UniProt P52292) R117Q
effect of a mutation on the interaction (magd1_human MAGED1): with no effect
effect of a mutation on the interaction (nmna1_human NMNAT1): with no effect
effect of a mutation on the interaction (mlh1_human MLH1): with no effect
effect of a mutation on the interaction (neca2_human NECAB2): with no effect
effect of a mutation on the interaction (srtd3_human SERTAD3): with no effect

Substance: Importin subunit alpha-1 (Homo sapiens) (from UniProt P52292) V506I
effect of a mutation on the interaction (magd1_human MAGED1): with no effect
effect of a mutation on the interaction (nmna1_human NMNAT1): with no effect
effect of a mutation on the interaction (neca2_human NECAB2): with no effect
effect of a mutation on the interaction (srtd3_human SERTAD3): with no effect

Substance: Hemoglobin subunit beta (Homo sapiens), P68871 P101A
effect of a mutation on the interaction (hbaz_human HBZ): disrupting interaction strength

Source: IntAct's records for PubMed 31515488
